From patent publication US7501122 (Genentech, dated 2009)

How the values were obtained:
ErbB4 (HER4) = target: T1, ErbB4 (HER4) (UniProt Q15303 26-651, limits assumed); assay: not described
T1 sequence (looked up): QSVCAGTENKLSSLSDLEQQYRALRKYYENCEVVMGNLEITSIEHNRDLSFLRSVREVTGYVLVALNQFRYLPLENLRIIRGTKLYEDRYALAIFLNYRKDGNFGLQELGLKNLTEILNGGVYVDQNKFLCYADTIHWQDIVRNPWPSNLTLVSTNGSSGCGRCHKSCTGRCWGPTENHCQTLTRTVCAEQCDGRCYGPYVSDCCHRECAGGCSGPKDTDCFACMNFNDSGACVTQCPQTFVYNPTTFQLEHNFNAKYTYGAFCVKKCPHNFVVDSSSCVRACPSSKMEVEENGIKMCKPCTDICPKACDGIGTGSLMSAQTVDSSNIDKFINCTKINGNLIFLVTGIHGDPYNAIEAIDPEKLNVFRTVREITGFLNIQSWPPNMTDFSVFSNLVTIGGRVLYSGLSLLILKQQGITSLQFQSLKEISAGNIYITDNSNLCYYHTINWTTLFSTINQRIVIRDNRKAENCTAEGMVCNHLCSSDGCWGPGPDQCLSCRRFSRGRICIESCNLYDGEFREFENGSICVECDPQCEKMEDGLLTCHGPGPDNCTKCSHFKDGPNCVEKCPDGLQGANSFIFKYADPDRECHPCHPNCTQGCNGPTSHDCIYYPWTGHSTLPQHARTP

ErbB3 (HER3) = target: T2, ErbB3 (HER3) (human, UniProt P21860 20-1342); assay: not described
T2 construct: whole, on cells
T2 sequence (P21860 20-1342): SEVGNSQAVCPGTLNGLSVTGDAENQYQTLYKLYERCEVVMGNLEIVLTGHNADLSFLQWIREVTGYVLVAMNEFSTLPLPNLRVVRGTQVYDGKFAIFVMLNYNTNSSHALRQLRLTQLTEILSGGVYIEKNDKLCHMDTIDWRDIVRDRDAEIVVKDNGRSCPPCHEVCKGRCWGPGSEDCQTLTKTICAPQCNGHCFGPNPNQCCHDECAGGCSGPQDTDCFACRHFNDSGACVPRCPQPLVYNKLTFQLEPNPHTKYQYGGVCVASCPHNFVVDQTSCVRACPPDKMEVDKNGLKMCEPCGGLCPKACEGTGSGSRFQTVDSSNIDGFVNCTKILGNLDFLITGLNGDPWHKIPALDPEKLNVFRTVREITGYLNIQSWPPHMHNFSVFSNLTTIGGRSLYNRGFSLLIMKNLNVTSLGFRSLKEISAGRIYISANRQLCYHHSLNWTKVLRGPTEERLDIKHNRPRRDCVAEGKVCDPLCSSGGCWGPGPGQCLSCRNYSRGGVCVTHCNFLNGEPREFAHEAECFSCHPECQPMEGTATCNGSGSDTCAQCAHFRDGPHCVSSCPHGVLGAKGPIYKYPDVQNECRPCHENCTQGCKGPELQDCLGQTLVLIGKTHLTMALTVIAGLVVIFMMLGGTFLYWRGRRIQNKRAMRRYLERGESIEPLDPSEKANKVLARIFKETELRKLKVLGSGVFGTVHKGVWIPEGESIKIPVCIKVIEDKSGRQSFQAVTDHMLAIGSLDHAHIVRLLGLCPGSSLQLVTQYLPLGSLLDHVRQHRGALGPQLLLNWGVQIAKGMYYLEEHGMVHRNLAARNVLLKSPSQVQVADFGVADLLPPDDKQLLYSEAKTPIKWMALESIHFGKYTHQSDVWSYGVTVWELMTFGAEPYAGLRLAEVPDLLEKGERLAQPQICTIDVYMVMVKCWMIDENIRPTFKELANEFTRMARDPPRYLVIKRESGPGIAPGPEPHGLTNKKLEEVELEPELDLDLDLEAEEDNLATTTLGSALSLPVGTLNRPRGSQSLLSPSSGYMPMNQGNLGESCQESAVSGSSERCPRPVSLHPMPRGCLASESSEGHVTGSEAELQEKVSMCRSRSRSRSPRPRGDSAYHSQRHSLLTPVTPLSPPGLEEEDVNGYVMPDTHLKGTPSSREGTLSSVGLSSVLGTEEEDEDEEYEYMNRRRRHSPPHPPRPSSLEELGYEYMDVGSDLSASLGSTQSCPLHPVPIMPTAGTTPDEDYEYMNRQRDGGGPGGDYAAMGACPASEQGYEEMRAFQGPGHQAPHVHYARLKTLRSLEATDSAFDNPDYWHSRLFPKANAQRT

B1: murine monoclonal antibody 2C4 (antibody, V domains shown)
VH: EVQLQQSGPELVKPGTSVKISCKASGFTFTDYTMDWVKQSHGKSLEWIGDVNPNSGGSIYNQRFKGKASLTVDRSSRIVYMELRSLTFEDTAVYYCARNLGPSFYFDYWGQGTTLTVSS
VL: DTVMTQSHKIMSTSVGDRVSITCKASQDVSIGVAWYQQRPGQSPKLLIYSASYRYTGVPDRFTGSGSGTDFTFTISSVQAEDLAVYYCQQYYIYPYTFGGGTKLEIK
notes: also called mu 2C4; intact murine 2C4
binding result (ErbB4 (HER4)): no binding | binding result (ErbB3 (HER3)): no binding
